Experimental data as given in patent US20250332297A1, “DLL3-SPECIFIC BINDING CONSTRUCTS AND THEIR USE IN RADIOTHERAPY” (MOLECULAR PARTNERS AG, priority 2024, published 2025).

Assays:
[1] = system: hDLL3-MC38 tumor model; experiment: Biodistribution of radio-labelled DARPin conjugates in hDLL3-MC38 tumor model; type: in vivo, mouse; settings: Pb-212 DOTAM conjugate 0.01 mg/kg (10 μCi) i.v., athymic nude mice, s.c. hDLL3-MC38
From the text: hDLL3-MC38 tumor model. ATH mice were purchased from Envigo. General handling and maintenance of mice was done as described above for the NCI-H82 tumor model. hDLL3-MC38 cells were purchased from Biocytogen (Catalog No. 311448). […] Cells were quantified using Countess cell counter.
Biodistribution study. […] Based on immunohistochemistry analyses, the hDLL3-MC38 tumors have a higher level of human DLL3 expression than the NCI-H82 tumors described in Example 3 (data not shown). Biodistribution was monitored at 1 h, 4 h and 24h post-injection. Mice were euthanized by CO2 inhalation and cervical dislocation.
Mice were euthanized by CO2 inhalation and cervical dislocation.

[2] = biological target: T1, human DLL3 expressed on HEK293T-huDLL3 cells (Homo sapiens, UniProt Q9NYJ7); experiment: Cell binding titration on HEK293T-hDLL3 cells; type: cell-based; settings: presence of human serum albumin (10 μM in FIG. 9 legend, 10 pM in the source), read-out: Cell binding EC50, with HSA
T1 construct: expressed in transfected cells; host or cells: HEK293T-hDLL3
T1 sequence (Q9NYJ7 27-618): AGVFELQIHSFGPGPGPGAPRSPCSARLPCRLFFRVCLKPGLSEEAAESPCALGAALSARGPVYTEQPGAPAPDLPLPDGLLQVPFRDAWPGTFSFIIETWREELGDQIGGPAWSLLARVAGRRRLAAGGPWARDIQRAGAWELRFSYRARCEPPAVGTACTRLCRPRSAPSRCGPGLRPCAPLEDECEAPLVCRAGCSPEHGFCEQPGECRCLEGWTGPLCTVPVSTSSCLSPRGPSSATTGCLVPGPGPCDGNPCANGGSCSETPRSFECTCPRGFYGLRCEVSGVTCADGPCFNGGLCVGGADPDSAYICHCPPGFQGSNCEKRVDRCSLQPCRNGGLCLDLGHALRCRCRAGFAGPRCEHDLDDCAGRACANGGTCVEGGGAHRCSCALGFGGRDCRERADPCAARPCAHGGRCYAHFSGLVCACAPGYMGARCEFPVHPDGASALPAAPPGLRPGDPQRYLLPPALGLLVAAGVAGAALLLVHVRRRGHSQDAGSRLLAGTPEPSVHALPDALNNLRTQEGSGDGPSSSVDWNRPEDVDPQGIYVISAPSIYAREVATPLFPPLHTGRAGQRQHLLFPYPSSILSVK

[3] = system: NCI-H82 tumor model; experiment: Biodistribution of radio-labelled DARPin conjugates in NCI-H82 tumor model; settings: for T:K ratio: R2G2 mice; for Blood % ID/g / Kidneys % ID/g / Tumors % ID/g: mouse, in vivo, iv, 0.01 mg/kg
Protocol: NCI-H82 tumor model. R2G2 mice were purchased from Envigo. All studies were conducted under the approval of the institutional IACUC committee. Animals were maintained under specific-pathogen-free (SPF) conditions with daily cycles of light and darkness (12 h/12 h), in line with ethical guidelines. No manipulations were performed during the first 5 days after arrival, to allow the animals to acclimatize to the new environment. All mice were monitored daily for assessment of physical condition and general well-being. NCI-H82 cells were purchased from ATCC (Catalog No. HTB-175). Solid xenografts were established by subcutaneous (SQ) injection of NCI-H82 cells in RPMI media mixed 1:1 with Corning® Matrigel® basement membrane matrix (GFR; Corning, Cat No 354230.). Cells were quantified using Countess cell counter. Each mouse was injected SQ with 5×10^6 NCI-H82 cells in 100 μL RPMI/GFR-Matrigel into the right flank of each mouse. Tumor volumes were estimated three times per week through calipering, according to the formula: volume=0.5×length×width^2 and grown until they reached 200-300 mm^3. Tumor-associated antigen level expressed in tumors, tumor vascularization profile and DLL3 soluble form in mouse serum was tested.
Biodistribution study. […] Radio-labeled (Pb-212) DARPin conjugates were then injected at 0.01 mg/kg (10 μCi DARPin conjugates) into the tail vein of R2G2 mice (females) xenografted subcutaneously (at age of about 7 weeks) with NCI-H82 cells (5 million cells, growth factor reduced Matrigel) and bearing tumors (5-10 mm in diameter). […] Biodistribution was monitored at 4 h and 24h post-injection. Mice were euthanized by CO2 inhalation and cervical dislocation. Blood, spleen, kidneys, liver and tumor were extracted, weighed and the radioactivity was determined with a γ-counter counter (such as Wizard^22470, Perkin Elmer). The data were expressed as the % injected dose/gram (% ID/g).
Radio-labeled (Pb-212) DARPin conjugates were then injected at 0.01 mg/kg (10 μCi DARPin conjugates) into the tail vein of R2G2 mice (females) xenografted subcutaneously (at age of about 7 weeks) with NCI-H82 cells (5 million cells, growth factor reduced Matrigel) and bearing tumors (5-10 mm in diameter). Biodistribution was monitored at 4 h and 24h post-injection. Mice were euthanized by CO2 inhalation and cervical dislocation. Kidneys and tumor were extracted, weighed and the radioactivity was determined with a γ-counter counter (such as Wizard^22470, Perkin Elmer). The data were expressed as the % injected dose/gram (% ID/g) and the tumor to kidney (T:K) ratio was determined.
Radio-labelled (Pb-212) DARPin conjugates were then injected at 0.01 mg/kg (10 μCi DARPin conjugates) (i) into the tail vein of R2G2 mice (females) xenografted subcutaneously (at age of about 7 weeks) with NCI-H82 cells (5 million cells, growth factor reduced Matrigel) and bearing tumors (5-10 mm in diameter), and (ii) into the tail vein of athymic nude mice (females) xenografted subcutaneously (at age of about 7 weeks) with hDLL3-MC38 cells (5 million cells, growth factor reduced Matrigel) and bearing tumors (5-10 mm in diameter). Biodistribution was monitored at 4 h and 24h post-injection. Mice were euthanized by CO2 inhalation and cervical dislocation. Blood, bladder, small intestine, colon, spleen, kidneys, liver, lung, heart, tail and tumor were extracted, weighed and the radioactivity was determined with a γ-counter (such as Wizard^22470, Perkin Elmer). The data were expressed as the % injected dose/gram (% ID/g).

B1: MAM282: Two domain (2D) ankyrin repeat protein: serum albumin-specific domain (SEQ ID NO: 7), PT linker, DLL3-specific domain (SEQ ID NO: 2) (protein)
chain: DLGKKLLEAARAGQDDEVRELLKAGADVNAKDYFSHTPLHLAARNGHLKIVEVLLKAGADVNAKDFAGKTPLHLAADAGHLEIVEVLLKAGADVNAQDIFGKTPADIAADAGHEDIAEVLQKAAGSPTPTPTTPTPTPTTPTPTPTGSDLGKKLLAAAREGQDDEVRELLKAGADVNAKDIWGQTPLHIAAWFGHLEIVEVLLKAGADVNAKDQTGHTPLHLAAKFGHLEIVEVLLKAGADVNAQDLLGRTPADLAAEEGHEDIAEVLQKAA
modifications: Ankyrin repeat protein (MAM282)
Blood % ID/g ([1]; 4 h, Example 8): 28.6 % ID/g | Kidneys % ID/g ([1]; 4 h, Example 8): 19.4 % ID/g | Tumors % ID/g ([1]; 4 h, Example 8): 21.4 % ID/g | Blood % ID/g ([1]; 24 h, Example 8): 9.9 % ID/g | Kidneys % ID/g ([1]; 24 h, Example 8): 27.9 % ID/g | Tumors % ID/g ([1]; 24 h, Example 8): 51.9 % ID/g | EC50 [2]: 19.6 nM

B2: MAM279 conjugate: SEQ ID NO: 15 conjugated to DOTAM-maleimide, labelled with Pb-212 (natural lead in PK studies) (conjugate)
chain: GSDLGKKLLEAARAGQDDEVRELLKAGADVNAKDYFSHTPLHLAARNGHLKIVEVLLKAGADVNAKDFAGKTPLHLAADAGHLEIVEVLLKAGADVNAQDIFGKTPADIAADAGHEDIAEVLQKAAGSPTPTPTTPTPTPTTPTPTPTGSDLGKKLLAAAAQGQDDEVRELLKAGANVNAKDLFGYTPLHLAAWRGHLEIVEVLLKAGADVNAKDAAGETPLHLAAWFGHLEIVEVLLKAGADVNAQDLQGKTPADLAAKEGHEDIAEVLQKAAGSGSC
modifications: DOTAM-maleimide, Pb-212 label; Ankyrin repeat protein with tag (GS-MAM279-tag)
T:K ratio ([3]; Pb-212 DOTAM conjugate 0.01 mg/kg (10 μCi) i.v., s.c. NCI-H82, 24 h, Example 9): above 1 | T:K ratio ([3]; Pb-212 conjugate, NCI-H82 cells xenografted intravenously instead of subcutaneously, 24 h (data not shown)): above 1 | T:K ratio ([1]; 24 h, Example 9): above 1

B3: Rova: Rova antibody, DLL3-binding benchmark antibody used as positive control and comparison (antibody, chains of the INN, looked up, V domains shown)
VH: QVQLVQSGAEVKKPGASVKVSCKASGYTFTNYGMNWVRQAPGQGLEWMGWINTYTGEPTYADDFKGRVTMTTDTSTSTAYMELRSLRSDDTAVYYCARIGDSSPSDYWGQGTLVTVSS
VL: EIVMTQSPATLSVSPGERATLSCKASQSVSNDVVWYQQKPGQAPRLLIYYASNRYTGIPARFSGSGSGTEFTLTISSLQSEDFAVYYCQQDYTSPWTFGQGTKLEIK
EC50 [2]: 0.3 nM

B4: MAM279: Two domain (2D) ankyrin repeat protein: serum albumin-specific domain (SEQ ID NO: 7), PT linker, DLL3-specific domain of MAM093 (protein)
chain: DLGKKLLEAARAGQDDEVRELLKAGADVNAKDYFSHTPLHLAARNGHLKIVEVLLKAGADVNAKDFAGKTPLHLAADAGHLEIVEVLLKAGADVNAQDIFGKTPADIAADAGHEDIAEVLQKAAGSPTPTPTTPTPTPTTPTPTPTGSDLGKKLLAAAAQGQDDEVRELLKAGANVNAKDLFGYTPLHLAAWRGHLEIVEVLLKAGADVNAKDAAGETPLHLAAWFGHLEIVEVLLKAGADVNAQDLQGKTPADLAAKEGHEDIAEVLQKAA
modifications: Ankyrin repeat protein (MAM279)
Blood % ID/g ([3]; 4 h): 23 % ID/g | Kidneys % ID/g ([3]; 4 h): 11 % ID/g | Tumors % ID/g ([3]; 4 h): 8 % ID/g | Blood % ID/g ([3]; 24 h): 13 % ID/g | Kidneys % ID/g ([3]; 24 h): 25 % ID/g | Tumors % ID/g ([3]; 24 h): 29 % ID/g | Blood % ID/g ([1]; 4 h, Example 7): 21.2 % ID/g | Kidneys % ID/g ([1]; 4 h, Example 7): 14.3 % ID/g | Tumors % ID/g ([1]; 4 h, Example 7): 20.6 % ID/g | Blood % ID/g ([1]; 4 h, Example 9): 21 % ID/g | Kidneys % ID/g ([1]; 4 h, Example 9): 14 % ID/g | T:K ratio ([1]; 4 h, Example 9): 1.5 | Tumors % ID/g ([1]; 4 h, Example 9): 21 % ID/g | Blood % ID/g ([1]; 24 h, Example 7): 8.1 % ID/g | Kidneys % ID/g ([1]; 24 h, Example 7): 23.3 % ID/g | Tumors % ID/g ([1]; 24 h, Example 7): 57.6 % ID/g | Blood % ID/g ([1]; 24 h, Example 9): 8 % ID/g | Kidneys % ID/g ([1]; 24 h, Example 9): 23 % ID/g | T:K ratio ([1]; 24 h, Example 9): 2.5 | Tumors % ID/g ([1]; 24 h, Example 9): 58 % ID/g | EC50 [2]: 16.3 nM

B5: MAM283: Two domain (2D) ankyrin repeat protein: serum albumin-specific domain (SEQ ID NO: 7), PT linker, DLL3-specific domain (SEQ ID NO: 3) (protein)
chain: DLGKKLLEAARAGQDDEVRELLKAGADVNAKDYFSHTPLHLAARNGHLKIVEVLLKAGADVNAKDFAGKTPLHLAADAGHLEIVEVLLKAGADVNAQDIFGKTPADIAADAGHEDIAEVLQKAAGSPTPTPTTPTPTPTTPTPTPTGSDLGKKLLAAAADGQDDEVRELLQAGADVNAKDLFGYTPLHLAAWRGHLEIVEVLLEAGADVNAKDAAGETPLHLAAWFGHLEIVEVLLEAGADVNAQDVQGKTPADLAAKEGHEDIAEVLQQAA
modifications: Ankyrin repeat protein (MAM283)
Blood % ID/g ([1]; 4 h, Example 7): 21.1 % ID/g | Kidneys % ID/g ([1]; 4 h, Example 7): 16.9 % ID/g | Tumors % ID/g ([1]; 4 h, Example 7): 22.5 % ID/g | Blood % ID/g ([1]; 24 h, Example 7): 0.8 % ID/g | Kidneys % ID/g ([1]; 24 h, Example 7): 26.8 % ID/g | Tumors % ID/g ([1]; 24 h, Example 7): 45.5 % ID/g | EC50 [2]: 18.4 nM
